Source: patent US20100130424A1 (Janssen / Centocor, published 2010)
No end group written: not given here. *: point of attachment. Succinimide(1-Et,3-yl) = CCN1C(=O)CC(*)C1=O

T1: human CRH receptor type 2 (human, UniProt Q13324 1-411)
T1 sequence (looked up): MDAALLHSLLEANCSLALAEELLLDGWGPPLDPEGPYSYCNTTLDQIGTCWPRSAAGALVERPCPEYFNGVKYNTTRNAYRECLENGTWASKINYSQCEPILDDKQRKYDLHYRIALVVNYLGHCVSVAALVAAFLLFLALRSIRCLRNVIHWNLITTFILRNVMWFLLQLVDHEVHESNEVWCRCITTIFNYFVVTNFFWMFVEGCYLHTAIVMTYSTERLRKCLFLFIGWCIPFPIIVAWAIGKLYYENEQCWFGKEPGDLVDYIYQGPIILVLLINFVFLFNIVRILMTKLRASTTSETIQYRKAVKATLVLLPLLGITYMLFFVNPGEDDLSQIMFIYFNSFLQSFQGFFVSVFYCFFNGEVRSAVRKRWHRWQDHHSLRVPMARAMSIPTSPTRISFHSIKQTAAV

B1: Cys-variant of stresscopin peptide with N-Ethylsuccinimide (NES) reactive group, SEQ ID NO: 42 (peptide)
peptide: TKFTLSLDVPTNIMNLLFNIAKAKNLRAQAAANAHLMAQC(Succinimide(1-Et,3-yl))-NH2
modifications: N-terminus assumed
SMILES: CC[C@H](C)[C@H](NC(=O)[C@H](CC(N)=O)NC(=O)[C@H](Cc1ccccc1)NC(=O)[C@H](CC(C)C)NC(=O)[C@H](CC(C)C)NC(=O)[C@H](CC(N)=O)NC(=O)[C@H](CCSC)NC(=O)[C@@H](NC(=O)[C@H](CC(N)=O)NC(=O)[C@@H](NC(=O)[C@@H]1CCCN1C(=O)[C@@H](NC(=O)[C@H](CC(=O)O)NC(=O)[C@H](CC(C)C)NC(=O)[C@H](CO)NC(=O)[C@H](CC(C)C)NC(=O)[C@@H](NC(=O)[C@H](Cc1ccccc1)NC(=O)[C@H](CCCCN)NC(=O)[C@@H](N)[C@@H](C)O)[C@@H](C)O)C(C)C)[C@@H](C)O)[C@@H](C)CC)C(=O)N[C@@H](C)C(=O)N[C@@H](CCCCN)C(=O)N[C@@H](C)C(=O)N[C@@H](CCCCN)C(=O)N[C@@H](CC(N)=O)C(=O)N[C@@H](CC(C)C)C(=O)N[C@@H](CCCNC(=N)N)C(=O)N[C@@H](C)C(=O)N[C@@H](CCC(N)=O)C(=O)N[C@@H](C)C(=O)N[C@@H](C)C(=O)N[C@@H](C)C(=O)N[C@@H](CC(N)=O)C(=O)N[C@@H](C)C(=O)N[C@@H](Cc1c[nH]cn1)C(=O)N[C@@H](CC(C)C)C(=O)N[C@@H](CCSC)C(=O)N[C@@H](C)C(=O)N[C@@H](CCC(N)=O)C(=O)N[C@@H](CSC1CC(=O)N(CC)C1=O)C(N)=O
B2: Cys-variant of stresscopin peptide with N-Ethylsuccinimide (NES) reactive group, SEQ ID NO: 45 (peptide)
peptide: TKFTLSLDVPTNIMNLLFNIAKAKNLRAQAAC(Succinimide(1-Et,3-yl))NAHLMAQI-NH2
modifications: N-terminus assumed
SMILES: CC[C@H](C)[C@H](NC(=O)[C@H](CCC(N)=O)NC(=O)[C@H](C)NC(=O)[C@H](CCSC)NC(=O)[C@H](CC(C)C)NC(=O)[C@H](Cc1c[nH]cn1)NC(=O)[C@H](C)NC(=O)[C@H](CC(N)=O)NC(=O)[C@H](CSC1CC(=O)N(CC)C1=O)NC(=O)[C@H](C)NC(=O)[C@H](C)NC(=O)[C@H](CCC(N)=O)NC(=O)[C@H](C)NC(=O)[C@H](CCCNC(=N)N)NC(=O)[C@H](CC(C)C)NC(=O)[C@H](CC(N)=O)NC(=O)[C@H](CCCCN)NC(=O)[C@H](C)NC(=O)[C@H](CCCCN)NC(=O)[C@H](C)NC(=O)[C@@H](NC(=O)[C@H](CC(N)=O)NC(=O)[C@H](Cc1ccccc1)NC(=O)[C@H](CC(C)C)NC(=O)[C@H](CC(C)C)NC(=O)[C@H](CC(N)=O)NC(=O)[C@H](CCSC)NC(=O)[C@@H](NC(=O)[C@H](CC(N)=O)NC(=O)[C@@H](NC(=O)[C@@H]1CCCN1C(=O)[C@@H](NC(=O)[C@H](CC(=O)O)NC(=O)[C@H](CC(C)C)NC(=O)[C@H](CO)NC(=O)[C@H](CC(C)C)NC(=O)[C@@H](NC(=O)[C@H](Cc1ccccc1)NC(=O)[C@H](CCCCN)NC(=O)[C@@H](N)[C@@H](C)O)[C@@H](C)O)C(C)C)[C@@H](C)O)[C@@H](C)CC)[C@@H](C)CC)C(N)=O
B3: Pegylated Cys-variant CRHR2 peptide agonist (NES-PEG MW5000), SEQ ID NO: 96 (peptide)
peptide: TKFTLSLDVPTNIMNLLFNIAKAKNLRCQAAANAHLMAQI
modifications: NES-PEG MW5000 on Cys 28; C-terminal amide
B4: Pegylated Cys-variant CRHR2 peptide agonist (NES-PEG MW40000), SEQ ID NO: 100 (peptide)
peptide: B3 peptide
modifications: NES-PEG MW40000 on Cys 28; C-terminal amide
B5: Pegylated Cys-variant CRHR2 peptide agonist (NES-PEG-NEM MW20000), SEQ ID NO: 98 (peptide)
peptide: B3 peptide
modifications: NES-PEG-NEM MW20000 on Cys 28 (double-ended linear PEG with an N-Ethylmaleimide cap at the non-linked end); C-terminal amide
B6: Pegylated Cys-variant CRHR2 peptide agonist (NES-PEG MW12000), SEQ ID NO: 97 (peptide)
peptide: B3 peptide
modifications: NES-PEG MW12000 on Cys 28; C-terminal amide
B7: Pegylated Cys-variant CRHR2 peptide agonist (NES-PEG MW30000), SEQ ID NO: 99 (peptide)
peptide: B3 peptide
modifications: NES-PEG MW30000 on Cys 28; C-terminal amide
B8: Cys-variant of stresscopin peptide with N-Ethylsuccinimide (NES) reactive group, SEQ ID NO: 44 (peptide)
peptide: TKFTLSLDVPTNIMNLLFNIAKAKNLRAQAAAC(Succinimide(1-Et,3-yl))AHLMAQI-NH2
modifications: N-terminus assumed
SMILES: CC[C@H](C)[C@H](NC(=O)[C@H](CCC(N)=O)NC(=O)[C@H](C)NC(=O)[C@H](CCSC)NC(=O)[C@H](CC(C)C)NC(=O)[C@H](Cc1c[nH]cn1)NC(=O)[C@H](C)NC(=O)[C@H](CSC1CC(=O)N(CC)C1=O)NC(=O)[C@H](C)NC(=O)[C@H](C)NC(=O)[C@H](C)NC(=O)[C@H](CCC(N)=O)NC(=O)[C@H](C)NC(=O)[C@H](CCCNC(=N)N)NC(=O)[C@H](CC(C)C)NC(=O)[C@H](CC(N)=O)NC(=O)[C@H](CCCCN)NC(=O)[C@H](C)NC(=O)[C@H](CCCCN)NC(=O)[C@H](C)NC(=O)[C@@H](NC(=O)[C@H](CC(N)=O)NC(=O)[C@H](Cc1ccccc1)NC(=O)[C@H](CC(C)C)NC(=O)[C@H](CC(C)C)NC(=O)[C@H](CC(N)=O)NC(=O)[C@H](CCSC)NC(=O)[C@@H](NC(=O)[C@H](CC(N)=O)NC(=O)[C@@H](NC(=O)[C@@H]1CCCN1C(=O)[C@@H](NC(=O)[C@H](CC(=O)O)NC(=O)[C@H](CC(C)C)NC(=O)[C@H](CO)NC(=O)[C@H](CC(C)C)NC(=O)[C@@H](NC(=O)[C@H](Cc1ccccc1)NC(=O)[C@H](CCCCN)NC(=O)[C@@H](N)[C@@H](C)O)[C@@H](C)O)C(C)C)[C@@H](C)O)[C@@H](C)CC)[C@@H](C)CC)C(N)=O
B9: Cys-variant of stresscopin peptide with N-Ethylsuccinimide (NES) reactive group, SEQ ID NO: 46 (peptide)
peptide: TKFTLSLDVPTNIMNLLFNIAKAKNLRAQAC(Succinimide(1-Et,3-yl))ANAHLMAQI-NH2
modifications: N-terminus assumed
SMILES: CC[C@H](C)[C@H](NC(=O)[C@H](CCC(N)=O)NC(=O)[C@H](C)NC(=O)[C@H](CCSC)NC(=O)[C@H](CC(C)C)NC(=O)[C@H](Cc1c[nH]cn1)NC(=O)[C@H](C)NC(=O)[C@H](CC(N)=O)NC(=O)[C@H](C)NC(=O)[C@H](CSC1CC(=O)N(CC)C1=O)NC(=O)[C@H](C)NC(=O)[C@H](CCC(N)=O)NC(=O)[C@H](C)NC(=O)[C@H](CCCNC(=N)N)NC(=O)[C@H](CC(C)C)NC(=O)[C@H](CC(N)=O)NC(=O)[C@H](CCCCN)NC(=O)[C@H](C)NC(=O)[C@H](CCCCN)NC(=O)[C@H](C)NC(=O)[C@@H](NC(=O)[C@H](CC(N)=O)NC(=O)[C@H](Cc1ccccc1)NC(=O)[C@H](CC(C)C)NC(=O)[C@H](CC(C)C)NC(=O)[C@H](CC(N)=O)NC(=O)[C@H](CCSC)NC(=O)[C@@H](NC(=O)[C@H](CC(N)=O)NC(=O)[C@@H](NC(=O)[C@@H]1CCCN1C(=O)[C@@H](NC(=O)[C@H](CC(=O)O)NC(=O)[C@H](CC(C)C)NC(=O)[C@H](CO)NC(=O)[C@H](CC(C)C)NC(=O)[C@@H](NC(=O)[C@H](Cc1ccccc1)NC(=O)[C@H](CCCCN)NC(=O)[C@@H](N)[C@@H](C)O)[C@@H](C)O)C(C)C)[C@@H](C)O)[C@@H](C)CC)[C@@H](C)CC)C(N)=O
B10: Cys-variant of stresscopin peptide with N-Ethylsuccinimide (NES) reactive group, SEQ ID NO: 43 (peptide)
peptide: TKFTLSLDVPTNIMNLLFNIAKAKNLRAQAAANAC(Succinimide(1-Et,3-yl))LMAQI-NH2
modifications: N-terminus assumed
SMILES: CC[C@H](C)[C@H](NC(=O)[C@H](CCC(N)=O)NC(=O)[C@H](C)NC(=O)[C@H](CCSC)NC(=O)[C@H](CC(C)C)NC(=O)[C@H](CSC1CC(=O)N(CC)C1=O)NC(=O)[C@H](C)NC(=O)[C@H](CC(N)=O)NC(=O)[C@H](C)NC(=O)[C@H](C)NC(=O)[C@H](C)NC(=O)[C@H](CCC(N)=O)NC(=O)[C@H](C)NC(=O)[C@H](CCCNC(=N)N)NC(=O)[C@H](CC(C)C)NC(=O)[C@H](CC(N)=O)NC(=O)[C@H](CCCCN)NC(=O)[C@H](C)NC(=O)[C@H](CCCCN)NC(=O)[C@H](C)NC(=O)[C@@H](NC(=O)[C@H](CC(N)=O)NC(=O)[C@H](Cc1ccccc1)NC(=O)[C@H](CC(C)C)NC(=O)[C@H](CC(C)C)NC(=O)[C@H](CC(N)=O)NC(=O)[C@H](CCSC)NC(=O)[C@@H](NC(=O)[C@H](CC(N)=O)NC(=O)[C@@H](NC(=O)[C@@H]1CCCN1C(=O)[C@@H](NC(=O)[C@H](CC(=O)O)NC(=O)[C@H](CC(C)C)NC(=O)[C@H](CO)NC(=O)[C@H](CC(C)C)NC(=O)[C@@H](NC(=O)[C@H](Cc1ccccc1)NC(=O)[C@H](CCCCN)NC(=O)[C@@H](N)[C@@H](C)O)[C@@H](C)O)C(C)C)[C@@H](C)O)[C@@H](C)CC)[C@@H](C)CC)C(N)=O

What follows are binders tested against T1, human CRH receptor type 2 (assay: cell-based or functional assay).

| Log DR against h-SCP, cAMP [log10 ratio] | pA50, cAMP | Binder |
| --- | --- | --- |
| ~1.72 | ~7.75 -log M | B1 |
| -0.01 | 9.48 -log M | B2 |
| 1 | 8.74 -log M | B3 |
| 1.1 | 8.64 -log M | B4 |
| 0.18 | 9.5 -log M | B5 |
| ~0.74 | ~9 -log M | B6 |
| 0.8 | 8.94 -log M | B7 |
| ~1.97 | ~7.5 -log M | B8 |
| 0.04 | 9.43 -log M | B9 |
| -0.32 | 9.79 -log M | B10 |
